Experimental data as given in US20170131280A1 (GENERAL HOSPITAL, published 2017).
Each block holds one binder with its values, some of them ahead of it.

Key:
[1] = target: Raptor, endogenous protein of 293T cells (UniProt Q8N122 1-1335); assay: co-immunoprecipitation from 293T cell lysates, western blot (FIG. 1E)
Protocol: (§1) Rictor interaction required the C-terminal portion of SAKT that encompass the cytoplasmic region.
(§2) Protein Analyses. For immunoblotting, cells were lysed in RIPA buffer (Cell Signaling Technology) supplemented with HALT™ protease and phosphatase inhibitor cocktails (Thermo Scientific). Western blot analysis was carried out according to standard methods (8). Equal amounts of total protein from lysates were subjected to SDS-PAGE, transferred to PVDF membrane (Invitrogen), and membranes were probed by overnight incubation with appropriate primary antibodies. Bound antibodies were visualized with HRP-conjugated secondary antibodies and ECL detection reagent (GE Healthcare) and quantification of protein bands (Multigauge V3.0, Fujifilm). For standard immunoprecipitation experiments, proteins were extracted by incubation on ice in IP Lysis Buffer and all protein extracts were pre-cleared with Protein-A/G agarose (Santa Cruz Biotechnology) and incubated with Protein A/G agarose bound with antibodies against FLAG M2 (Sigma), Rictor (#9476, Cell Signaling Technology), and SAKT (Santa Cruz Biotechnology) or control IgG from mouse, and rabbit at 4° C. Immunoprecipitates were washed four times with lysis buffer and boiled for 10 minutes in 1× LDS sample buffer (Invitrogen). The eluted proteins were immunoblotted with the antibodies indicated above. […]

[2] = target: mTor, endogenous protein of 293T cells (human, UniProt P42345 1-2549); assay: as above
Protocol: as §1, §2

[3] = target: Raptor, endogenous protein of murine BM cells (mouse, UniProt Q8K4Q0 1-1335); assay: co-immunoprecipitation from BM cell lysates, western blot (FIG. 1E)
Chain of Raptor, endogenous protein of murine BM cells (Q8K4Q0 whole entry): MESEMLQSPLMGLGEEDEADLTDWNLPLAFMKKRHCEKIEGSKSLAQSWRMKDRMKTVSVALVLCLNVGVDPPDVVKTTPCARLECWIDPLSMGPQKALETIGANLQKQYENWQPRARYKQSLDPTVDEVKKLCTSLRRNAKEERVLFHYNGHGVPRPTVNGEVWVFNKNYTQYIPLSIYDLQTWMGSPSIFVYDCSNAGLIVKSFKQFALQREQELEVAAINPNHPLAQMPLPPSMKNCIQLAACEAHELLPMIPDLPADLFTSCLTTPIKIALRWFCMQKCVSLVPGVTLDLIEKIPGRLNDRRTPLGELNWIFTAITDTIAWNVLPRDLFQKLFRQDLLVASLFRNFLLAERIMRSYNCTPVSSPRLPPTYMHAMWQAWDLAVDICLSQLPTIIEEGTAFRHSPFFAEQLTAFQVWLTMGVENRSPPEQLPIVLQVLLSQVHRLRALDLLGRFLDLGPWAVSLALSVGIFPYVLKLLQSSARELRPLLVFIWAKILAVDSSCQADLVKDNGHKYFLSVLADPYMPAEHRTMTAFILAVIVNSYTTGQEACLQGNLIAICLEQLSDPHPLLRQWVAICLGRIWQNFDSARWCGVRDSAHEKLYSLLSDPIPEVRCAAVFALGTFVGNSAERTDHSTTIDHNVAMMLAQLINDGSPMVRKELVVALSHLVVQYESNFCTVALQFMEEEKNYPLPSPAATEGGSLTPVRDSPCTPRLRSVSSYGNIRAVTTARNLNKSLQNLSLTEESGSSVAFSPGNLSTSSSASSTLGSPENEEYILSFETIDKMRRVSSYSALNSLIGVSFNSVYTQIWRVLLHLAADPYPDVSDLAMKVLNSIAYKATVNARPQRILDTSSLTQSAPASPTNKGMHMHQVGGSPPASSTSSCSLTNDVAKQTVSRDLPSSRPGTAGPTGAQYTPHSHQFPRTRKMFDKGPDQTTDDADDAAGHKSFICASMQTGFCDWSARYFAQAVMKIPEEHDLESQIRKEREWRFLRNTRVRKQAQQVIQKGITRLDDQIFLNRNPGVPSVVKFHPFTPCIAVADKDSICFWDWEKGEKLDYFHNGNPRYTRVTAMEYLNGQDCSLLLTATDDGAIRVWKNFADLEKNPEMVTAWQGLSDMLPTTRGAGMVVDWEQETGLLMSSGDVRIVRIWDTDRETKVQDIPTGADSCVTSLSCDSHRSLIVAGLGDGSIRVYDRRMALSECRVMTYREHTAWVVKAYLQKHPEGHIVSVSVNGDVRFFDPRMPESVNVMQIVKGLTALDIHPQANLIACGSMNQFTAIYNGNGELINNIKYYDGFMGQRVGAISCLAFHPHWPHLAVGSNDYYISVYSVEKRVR
Protocol: as §1, §2

[4] = target: mTor, endogenous protein of murine BM cells (mouse, UniProt Q9JLN9 1-2549); assay: as above
Protocol: as §1, §2

Chain of Raptor, endogenous protein of 293T cells (Q8N122 whole entry): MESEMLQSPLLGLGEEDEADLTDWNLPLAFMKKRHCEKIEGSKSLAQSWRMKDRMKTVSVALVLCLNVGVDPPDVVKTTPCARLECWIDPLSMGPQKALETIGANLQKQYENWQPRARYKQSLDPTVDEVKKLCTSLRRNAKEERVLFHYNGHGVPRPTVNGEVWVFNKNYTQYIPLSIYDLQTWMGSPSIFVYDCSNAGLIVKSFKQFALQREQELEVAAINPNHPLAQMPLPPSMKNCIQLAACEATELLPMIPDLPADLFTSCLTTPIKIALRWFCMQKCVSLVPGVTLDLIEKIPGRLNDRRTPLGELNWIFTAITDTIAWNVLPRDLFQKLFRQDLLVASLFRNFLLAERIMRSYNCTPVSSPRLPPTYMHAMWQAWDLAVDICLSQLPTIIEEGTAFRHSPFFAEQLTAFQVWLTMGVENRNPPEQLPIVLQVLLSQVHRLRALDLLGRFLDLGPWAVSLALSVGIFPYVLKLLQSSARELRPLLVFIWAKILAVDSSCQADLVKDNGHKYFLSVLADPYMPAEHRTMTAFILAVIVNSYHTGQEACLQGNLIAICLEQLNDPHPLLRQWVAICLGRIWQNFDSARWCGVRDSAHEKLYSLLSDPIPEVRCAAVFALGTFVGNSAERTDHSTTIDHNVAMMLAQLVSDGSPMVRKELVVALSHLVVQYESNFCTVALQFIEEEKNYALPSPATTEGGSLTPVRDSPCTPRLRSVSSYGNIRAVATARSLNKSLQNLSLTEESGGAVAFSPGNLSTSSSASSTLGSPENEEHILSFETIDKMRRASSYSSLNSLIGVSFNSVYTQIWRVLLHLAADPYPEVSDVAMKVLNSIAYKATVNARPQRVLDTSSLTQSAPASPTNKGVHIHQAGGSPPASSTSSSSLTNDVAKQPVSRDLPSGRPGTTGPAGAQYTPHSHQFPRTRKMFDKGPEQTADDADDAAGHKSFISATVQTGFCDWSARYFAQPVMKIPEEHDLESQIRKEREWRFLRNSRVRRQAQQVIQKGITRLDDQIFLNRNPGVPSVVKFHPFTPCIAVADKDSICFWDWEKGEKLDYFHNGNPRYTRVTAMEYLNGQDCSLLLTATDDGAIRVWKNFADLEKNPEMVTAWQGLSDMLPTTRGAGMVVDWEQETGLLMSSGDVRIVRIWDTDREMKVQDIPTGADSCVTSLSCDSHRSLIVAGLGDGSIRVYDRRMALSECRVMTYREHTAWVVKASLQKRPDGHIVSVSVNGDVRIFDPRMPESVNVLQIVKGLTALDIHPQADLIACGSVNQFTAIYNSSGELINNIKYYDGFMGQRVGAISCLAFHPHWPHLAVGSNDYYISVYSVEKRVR

binding result [1]: no binding
binding result [2]: no binding
B1: Suppressor of AKT (SAKT), endogenous protein of 293T cells (receptor, UniProt Q86TY3 28-774, looked up)
chain: FPKIERRREIAHVHAEKGQSDKMNTDDLENSSVTSKQTPQLVVSEDPMMMSAVPSATSLNKAFSINKETQPGQAGLMQTERPGVSTPTESGVPSAEEVFGSSQPERISPESGLAKAMLTIAITATPSLTVDEKEELLTSTNFQPIVEEITETTKGFLKYMDNQSFATESQEGVGLGHSPSSYVNTKEMLTTNPKTEKFEADTDHRTTSFPGAESTAGSEPGSLTPDKEKPSQMTADNTQAAATKQPLETSEYTLSVEPETDSLLGAPEVTVSVSTAVPAASALSDEWDDTKLESVSRIRTPKLGDNEETQVRTEMSQTAQVSHEGMEGGQPWTEAAQVALGLPEGETHTGTALLIAHGNERSPAFTDQSSFTPTSLMEDMKVSIVNLLQSTGDFTESTKENDALFFLETTVSVSVYESEADQLLGNTMKDIITQEMTTAVQEPDATLSMVTQEQVATLELIRDSGKTEEEKEDPSPVSDVPGVTQLSRRWEPLATTISTTVVPLSFEVTPTVEEQMDTVTGPNEEFTPVLGSPVTPPGIMVGEPSISPALPALEASSERRTVVPSITRVNTAASYGLDQLESEEGQEDEDEEDEEDEDEEEEDEEEDEEDKDADSLDEGLDGDTELPGFTLPGITSQEPGLEEGNMDLLEGATYQVPDALEWEQQNQGLVRSWMEKLKDKAGYMSGMLVPVGVGIAGALFILGALYSIKVMNRRRRNGFKRHKRKQREFNSMQDRVMLLADSSEDEF
notes: also called C14ORF37

binding result [3]: no binding
binding result [4]: no binding
B2: Suppressor of AKT (SAKT), endogenous protein of murine bone marrow (BM) cells (receptor, mouse, UniProt Q8BT18 48-775, looked up)
chain: FPKVERRETAQEYAEKEQSQKMNTDDQENISFAPKYMLQQMSSEAPMVLSEGPSEIPLIKVFSVNKESHLPGAGLLHPTSPGVYSSSEPVVSASEQEPGPSLLERMSSEHSLSKVMLTVAVSSPASLNPDQEGPYNSLSTQPIVAAVTDVTHGSLDYLDNQLFAAKSQEAVSLGNSPSSSINTKEPEIIKADAAMGTTVVPGVDSTGDMEPDRERPSEMAADDGQSTTTKYLVTIPNNFLTTEPTAGSILGDAKVTVSVSTAGPVSSIFNEEWDDTKFESISRGRPPEPGDNAETQMRTKPPHGTYESFEGTEESPSSTAVLKVAPGHLGGEPALGTALVTALGDERSPVLTHQISFTPMSLAEDPEVSTMKLFPSAGGFRASTQGDRTQLSSETAFSTSQYESVPQQEAGNVLKDITQERKMATQAMNTTSPVVTQEHMATIEVPRGSGEPEEGMPSLSPVPAEVADAELSRRGESLATPASTTVVPLSLKLTSSMEDLMDTITGPSEEFIPVLGSPMAPPAMTVEAPTISSALPSEGRTSPSISRPNTAASYGLEQLESEEVEDDEDEEDEEDEEEEEEDEEDEEDEEDKETDSLYKDFDGDTEPPGFTLPGITSQEPDIRSGSMDLLEVATYQVPETIEWEQQNQGLVRSWMEKLKDKAGYMSGMLVPVGVGIAGALFILGALYSIKVMNRRRRNGFKRHKRKQREFNSMQDRVMLLADSSEDEF
notes: Endogenous protein immunoprecipitated from murine BM cell lysates; also called C14ORF37
